Results reported in the supplement of paper PMC7877785.
± gives the uncertainty stated by the source.

Assay: self-splicing fitness, log relative to wild type (ln ratio); higher = more splicing; Tetrahymena group I intron in knt gene, E. coli kanamycin selection, DiMSum; sequences stand for … in CUCUCU…GGAGGGAAAAGUUAUCAGGCAUGCACCUGGUAGCUAGUCUUUAAACCAAUAGAUUGCAUCGGUUUAAAAGGCAAGACCGUCAAAUUGCGGGAAAGGGGUCAACAGCCGUUCAGUACCAAGUCUCAGGGGAAACUUUGAGAUGGCCUUGCAAAGGGUAUGGUAAUAAGCUGACGGACAUGGUCCUAACCACGCAGCCAAGUCCUAAGUCAACAGAUCUUCUGUUGAUAUGGAUGCAGUUCACAGACUAAAUGUCGGUCGGGGAAGAUGUAUUCUUCUCAUAAGAUAUAGUCGGACCUCUCCUUAAUGGGAGCUAGCGGAUGAAGUGAUGCAACACUGGAGCCGCUGGGAACUAAUUUGUAUGCGAAAGUAUAUUGAUUAGUUUUGGAGUACUCGUGGUCG
Summary of the method: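 Fitness was computed with DiMSum as the error-weighted combination of replicate fold changes, kanamycin versus none, each normalised to wild type. The library randomised all eight intron nucleotides of the P1ex region, with the intron placed in the knt kanamycin-resistance gene on pET-22b(+) in E. coli BL21(DE3). Six replicate transformations were grown overnight at 37°C or 30°C on LB agar with or without 25 μg/mL kanamycin, plus 100 μg/mL carbenicillin, 50 μM IPTG and 0.2% rhamnose. Pooled colonies were amplicon-sequenced on an Illumina HiSeq 2500.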

| Sequence | self-splicing fitness (ln) (30 °C) | self-splicing fitness (ln) (37 °C) |
| --- | --- | --- |
| AGGAAGCAAUAUUACGUAAA | -2.59 ± 0.18 | -1.88 ± 0.18 |
| AGGAAGCAAUAUUACGUCCU | -3.89 ± 0.16 | -2.04 ± 0.15 |
| AGGAAGCAAUAUUACGUCGA | -1.4 ± 0.16 | -0.922 ± 0.16 |
| AGGAAGCAAUAUUACGUCGU | -2.6 ± 0.14 | -0.803 ± 0.12 |
| AGGAAGCAAUAUUACGUCUG | -0.767 ± 0.058 | -0.387 ± 0.073 |
| AGGAAGCAAUAUUACGUGAU | -3.24 ± 0.13 | -2.57 ± 0.18 |
| AGGAAGCAAUAUUACGUGUG | -2.29 ± 0.077 | -1.85 ± 0.095 |
| AGGAAGCAAUAUUACGUUGG | -3.22 ± 0.3 | -2.33 ± 0.17 |
| AGGAAGCAAUAUUACGUUUA | -2.27 ± 0.12 | -1.8 ± 0.14 |
| AGGCAGCAAUAUUACGAAGC | -4.02 ± 0.42 | -2.73 ± 0.33 |
| AGGCAGCAAUAUUACGACAA | -1.26 ± 0.14 | -0.976 ± 0.13 |
| AGGCAGCAAUAUUACGACGA | -0.555 ± 0.12 | -0.00249 ± 0.14 |
| AGGCAGCAAUAUUACGAGAC | -1.96 ± 0.13 | -2.65 ± 0.22 |
| AGGCAGCAAUAUUACGAGUU | -1.69 ± 0.11 | -0.885 ± 0.1 |
| AGGCAGCAAUAUUACGAUAU | -1.27 ± 0.069 | -0.399 ± 0.091 |
| AGGCAGCAAUAUUACGAUCA | -0.829 ± 0.13 | -0.234 ± 0.15 |
| AGGCAGCAAUAUUACGAUUU | -0.23 ± 0.085 | -0.332 ± 0.1 |
| AGGCAGCAAUAUUACGCAUA | -0.866 ± 0.081 | -1.07 ± 0.093 |
| AGGCAGCAAUAUUACGCAUU | -2.24 ± 0.13 | -0.577 ± 0.1 |
| AGGCAGCAAUAUUACGCCGA | -1.28 ± 0.35 | -1.97 ± 0.22 |
| AGGCAGCAAUAUUACGCCGC | -2.8 ± 0.18 | -2.66 ± 0.29 |
| AGGCAGCAAUAUUACGCCUG | -1.78 ± 0.14 | -0.748 ± 0.14 |
| AGGCAGCAAUAUUACGCGGU | -3.61 ± 0.19 | -2.98 ± 0.17 |
| AGGCAGCAAUAUUACGCUGG | -3.73 ± 0.22 | -1.2 ± 0.17 |
| AGGCAGCAAUAUUACGGACU | -0.344 ± 0.079 | 0.146 ± 0.093 |

| Sequence | self-splicing fitness (ln) (30 °C) | self-splicing fitness (ln) (37 °C) |
| --- | --- | --- |
| AGGCAGCAAUAUUACGGCGG | -1.62 ± 0.094 | -1.11 ± 0.13 |
| AGGCAGCAAUAUUACGGCGU | -0.172 ± 0.063 | -0.0953 ± 0.079 |
| AGGCAGCAAUAUUACGGGUA | -2.35 ± 0.15 | -1.05 ± 0.11 |
| AGGCAGCAAUAUUACGGUAG | -3.33 ± 0.25 | -2.66 ± 0.29 |
| AGGCAGCAAUAUUACGGUCG | -0.147 ± 0.079 | -0.266 ± 0.1 |
| AGGCAGCAAUAUUACGUAAC | -2.03 ± 0.12 | -0.934 ± 0.14 |
| AGGCAGCAAUAUUACGUAGU | -3.18 ± 0.12 | -1.75 ± 0.11 |
| AGGCAGCAAUAUUACGUGUU | -1.85 ± 0.063 | -1.38 ± 0.088 |
| AGGCAGCAAUAUUACGUUCC | -0.801 ± 0.12 | -0.27 ± 0.16 |
| AGGCAGCAAUAUUACGUUUC | -2.17 ± 0.095 | -1.75 ± 0.15 |
| AGGGAGCAAUAUUACGACUC | -1.2 ± 0.48 | -1.92 ± 0.48 |
| AGGGAGCAAUAUUACGAUGU | -1.22 ± 0.098 | -2.13 ± 0.19 |
| AGGGAGCAAUAUUACGCCAC | -2.47 ± 0.49 | – |
| AGGGAGCAAUAUUACGCGAU | -2.89 ± 0.29 | -1.84 ± 0.47 |
| AGGGAGCAAUAUUACGCGGG | -1.93 ± 0.2 | – |
| AGGGAGCAAUAUUACGCGUG | -2.4 ± 0.15 | -2.35 ± 0.23 |
| AGGGAGCAAUAUUACGCUUG | -1.95 ± 0.27 | – |
| AGGGAGCAAUAUUACGCUUU | -2.49 ± 0.45 | -2.48 ± 0.5 |
| AGGGAGCAAUAUUACGGAAG | -3.61 ± 0.4 | -1.02 ± 0.33 |
| AGGGAGCAAUAUUACGGAUA | -3.15 ± 0.31 | – |
| AGGGAGCAAUAUUACGGCCG | -1.81 ± 0.16 | -1.96 ± 0.16 |
| AGGGAGCAAUAUUACGGGGU | -3.27 ± 0.36 | -3.01 ± 0.31 |
| AGGGAGCAAUAUUACGGUGA | -1.8 ± 0.24 | -1.66 ± 0.26 |
| AGGGAGCAAUAUUACGGUGG | -3.72 ± 0.27 | -3.79 ± 0.36 |
